According to patent publication US20130251703A1 (Novartis, published 2013):

Assays:
[1] = biological target: T1, human HER3 endogenously expressed on human cancer cells (SK-Br-3, BT-474, MCF7) (human, UniProt P21860 20-1342); experiment: cell-based or functional assay
[2] = biological target: T1, human HER3 endogenously expressed on …; experiment: cell-based or functional assay; remark: listed apart in the source
[3] = biological target: T1, human HER3 endogenously expressed on …; experiment: cell-based or functional assay; remark: listed apart in the source
[4] = biological target: T2, Hu HER3: CD33-[Human HER3, residues 20-640]-TAG (human, UniProt P21860 20-640); experiment: solution equilibrium titration (SET), IgG, ECL read-out
T2 construct: also called hu HER3-Tag; HER3-Tag; not shown: C-terminal TAG (e.g. FLAG TAG)

Binder	MCF7 pHER3 % inhibition [1] [%]	MCF7 pHER3 IC50 [1] [pM]	SK-Br-3 pHER3 % inhibition [1] [%]	SK-Br-3 pHER3 IC50 [1] [pM]	other results
MOR13657 (antibody, human IgG1, lambda, V domains shown, Tested as IgG) VH: QVQLVQSGAEVKKPGASVKVSCKASGYTFTSYDIHWVRQAPGQGLEWMGRIDPYSGNTNYAQKFQGRVTMTRDTSISTAYMELSRLRSEDTAVYYCARGSFYTRDSYFDVWGQGTLVTVSS VL: DIALTQPASVSGSPGQSITISCTGTSSDVGTYNQVSWYQQHPGKAPKLMIYGVSKRPSGVSNRFSGSKSGNTASLTISGLQAEDEADYYCSARDGWSEYVFGGGTKLTVLG	75	283	71	142	BT474 pHER3 % inhibition [1]: 63%; BT474 pHER3 IC50 [1]: 372 pM; BT-474 pAkt % inhibition [2]: 53%; BT-474 pAkt IC50 [2]: 586 pM; MCF7 pAkt % inhibition [2]: 75%; MCF7 pAkt IC50 [2]: 385 pM; SK-Br-3 pAkt % inhibition [2]: 91%; SK-Br-3 pAkt IC50 [2]: 33 pM; BT-474 proliferation % inhibition [3]: 30%; BT-474 proliferation IC50 [3]: 0.473 nM; SK-Br-3 proliferation % inhibition [3]: 39%; SK-Br-3 proliferation IC50 [3]: 0.179 nM; Kd [4]: 0.087 nM
MOR13661 (antibody, human IgG1, lambda, V domains shown) VH: QVQLVQSGAEVKKPGASVKVSCKASGYTFTSYDIHWVRQAPGQGLEWMGRIDPYSGNTNYAQKFQGRVTMTRDTSISTAYMELSRLRSEDTAVYYCARGSFYTRDSYFDVWGQGTLVTVSS VL: DIALTQPASVSGSPGQSITISCTGTSSDVGTYNQVSWYQQHPGKAPKLMIYGVSKRPSGVSNRFSGSKSGNTASLTISGLQAEDEADYYCGSRDSWAHVFGGGTKLTVLG	55	649	55	421	
MOR13656 (antibody, human IgG1, lambda, V domains shown) VH: QVQLVQSGAEVKKPGASVKVSCKASGYTFTSYDIHWVRQAPGQGLEWMGRIDPYSGNTNYAQKFQGRVTMTRDTSISTAYMELSRLRSEDTAVYYCARGSFYTRDSYFDVWGQGTLVTVSS VL: DIALTQPASVSGSPGQSITISCTGTSSDVGTYNQVSWYQQHPGKAPKLMIYGVSKRPSGVSNRFSGSKSGNTASLTISGLQAEDEADYYCAVRDSVWHVFGGGTKLTVLG	73	504	60	86	
MOR12922 (antibody, human IgG1, lambda, V domains shown) VH: QVQLVQSGAEVKKPGASVKVSCKASGYTFTGYYMHWVRQAPGQGLEWMGVIDPYSGWTEYAQKFQGRVTMTRDTSISTAYMELSRLRSEDTAVYYCARGSFYTRDSYFDVWGQGTLVTVSS VL: DIALTQPASVSGSPGQSITISCTGTSSDVGTYNQVSWYQQHPGKAPKLMIYGVSKRPSGVSNRFSGSKSGNTASLTISGLQAEDEADYYCSSRDLIGHYVFGGGTKLTVLG	62	788	64	81	BT474 pHER3 % inhibition [1]: 58%; BT474 pHER3 IC50 [1]: 702 pM; MCF7 proliferation % inhibition [3]: 27%; MCF7 proliferation IC50 [3]: 0.467 nM; SK-Br-3 proliferation % inhibition [3]: 36%; SK-Br-3 proliferation IC50 [3]: 0.709 nM
MOR13664 (antibody, human IgG1, lambda, V domains shown) VH: QVQLVQSGAEVKKPGASVKVSCKASGYTFTSYDIHWVRQAPGQGLEWMGRIDPYSGNTNYAQKFQGRVTMTRDTSISTAYMELSRLRSEDTAVYYCARGSFYTRDSYFDVWGQGTLVTVSS VL: DIALTQPASVSGSPGQSITISCTGTSSDVGTYNQVSWYQQHPGKAPKLMIYGVSKRPSGVSNRFSGSKSGNTASLTISGLQAEDEADYYCSAYDASTQVVFGGGTKLTVLG	55	480	57	388	
MOR12920 (antibody, human IgG1, lambda, V domains shown) VH: QVQLVQSGAEVKKPGASVKVSCKASGYTFTGYYMHWVRQAPGQGLEWMGDIEPYHGKPLYAQKFQGRVTMTRDTSISTAYMELSRLRSEDTAVYYCARGSFYTRDSYFDVWGQGTLVTVSS VL: DIALTQPASVSGSPGQSITISCTGTSSDVGTYNQVSWYQQHPGNAPKLMIYGVSKRPSGVSNRFSGSKSGNTASLTISGLQAEDEADYYCSSRDLIGHYVFGGGTKLTVLG	66	3070	57	851	BT474 pHER3 % inhibition [1]: 57%; BT474 pHER3 IC50 [1]: 2020 pM; MCF7 proliferation % inhibition [3]: 22%; MCF7 proliferation IC50 [3]: 1.92 nM; SK-Br-3 proliferation % inhibition [3]: 32%; SK-Br-3 proliferation IC50 [3]: 2.91 nM
MOR13663 (antibody, human IgG1, lambda, V domains shown) VH: QVQLVQSGAEVKKPGASVKVSCKASGYTFTSYDIHWVRQAPGQGLEWMGRIDPYSGNTNYAQKFQGRVTMTRDTSISTAYMELSRLRSEDTAVYYCARGSFYTRDSYFDVWGQGTLVTVSS VL: DIALTQPASVSGSPGQSITISCTGTSSDVGTYNQVSWYQQHPGKAPKLMIYGVSKRPSGVSNRFSGSKSGNTASLTISGLQAEDEADYYCSVWTSIKVFVFGGGTKLTVLG	58	449	56	290	
MOR13659 (antibody, human IgG1, lambda, V domains shown) VH: QVQLVQSGAEVKKPGASVKVSCKASGYTFTSYDIHWVRQAPGQGLEWMGRIDPYSGNTNYAQKFQGRVTMTRDTSISTAYMELSRLRSEDTAVYYCARGSFYTRDSYFDVWGQGTLVTVSS VL: DIALTQPASVSGSPGQSITISCTGTSSDVGTYNQVSWYQQHPGKAPKLMIYGVSKRPSGVSNRFSGSKSGNTASLTISGLQAEDEADYYCGSRTSHNWVFGGGTKLTVLG	66	505	51	277	
MOR13660 (antibody, human IgG1, lambda, V domains shown) VH: QVQLVQSGAEVKKPGASVKVSCKASGYTFTSYDIHWVRQAPGQGLEWMGRIDPYSGNTNYAQKFQGRVTMTRDTSISTAYMELSRLRSEDTAVYYCARGSFYTRDSYFDVWGQGTLVTVSS VL: DIALTQPASVSGSPGQSITISCTGTSSDVGTYNQVSWYQQHPGKAPKLMIYGVSKRPSGVSNRFSGSKSGNTASLTISGLQAEDEADYYCAVRGSQTLVFGGGTKLTVLG	49	533	54	188	
MOR13662 (antibody, human IgG1, lambda, V domains shown) VH: QVQLVQSGAEVKKPGASVKVSCKASGYTFTSYDIHWVRQAPGQGLEWMGRIDPYSGNTNYAQKFQGRVTMTRDTSISTAYMELSRLRSEDTAVYYCARGSFYTRDSYFDVWGQGTLVTVSS VL: DIALTQPASVSGSPGQSITISCTGTSSDVGTYNQVSWYQQHPGKAPKLMIYGVSKRPSGVSNRFSGSKSGNTASLTISGLQAEDEADYYCYSRAKTHWTDVFGGGTKLTVLG	52	550	56	331	

More lines, main results first:

MCF7 pHER3 % inhibition [1] [%]	MCF7 pHER3 IC50 [1] [pM]	SK-Br-3 pHER3 % inhibition [1] [%]	SK-Br-3 pHER3 IC50 [1] [pM]	Binder	other results
69	643	60	730	MOR13670 (antibody, human IgG1, lambda, V domains shown) VH: QVQLVQSGAEVKKPGASVKVSCKASGYTFTSYDIHWVRQAPGQGLEWMGRIDPYSGNTNYAQKFQGRVTMTRDTSISTAYMELSRLRSEDTAVYYCARGSFYTRDSYFDVWGQGTLVTVSS VL: DIALTQPASVSGSPGQSITISCTGTSSDVGTYNQVSWYQQHPGKAPKLMIYGVSKRPSGVSNRFSGSKSGNTASLTISGLQAEDEADYYCQVADQGWHQVFGGGTKLTVLG	
77	1640	58	657	MOR13668 (antibody, human IgG1, lambda, V domains shown) VH: QVQLVQSGAEVKKPGASVKVSCKASGYTFTSYDIHWVRQAPGQGLEWMGRIDPYSGNTNYAQKFQGRVTMTRDTSISTAYMELSRLRSEDTAVYYCARGSFYTRDSYFDVWGQGTLVTVSS VL: DIALTQPASVSGSPGQSITISCTGTSSDVGTYNQVSWYQQHPGKAPKLMIYGVSKRPSGVSNRFSGSKSGNTASLTISGLQAEDEADYYCQVWDSDQAMVFGGGTKLTVLG	
72	603	59	267	MOR13667 (antibody, human IgG1, lambda, V domains shown) VH: QVQLVQSGAEVKKPGASVKVSCKASGYTFTSYDIHWVRQAPGQGLEWMGRIDPYSGNTNYAQKFQGRVTMTRDTSISTAYMELSRLRSEDTAVYYCARGSFYTRDSYFDVWGQGTLVTVSS VL: DIALTQPASVSGSPGQSITISCTGTSSDVGTYNQVSWYQQHPGKAPKLMIYGVSKRPSGVSNRFSGSKSGNTASLTISGLQAEDEADYYCQAWDYRQTIVFGGGTKLTVLG	
62	795	59	546	MOR13665 (antibody, human IgG1, lambda, V domains shown) VH: QVQLVQSGAEVKKPGASVKVSCKASGYTFTSYDIHWVRQAPGQGLEWMGRIDPYSGNTNYAQKFQGRVTMTRDTSISTAYMELSRLRSEDTAVYYCARGSFYTRDSYFDVWGQGTLVTVSS VL: DIALTQPASVSGSPGQSITISCTGTSSDVGTYNQVSWYQQHPGKAPKLMIYGVSKRPSGVSNRFSGSKSGNTASLTISGLQAEDEADYYCQSAAIATSVFGGGTKLTVLG	
66		58	743	MOR13669 (antibody, human IgG1, lambda, V domains shown) VH: QVQLVQSGAEVKKPGASVKVSCKASGYTFTSYDIHWVRQAPGQGLEWMGRIDPYSGNTNYAQKFQGRVTMTRDTSISTAYMELSRLRSEDTAVYYCARGSFYTRDSYFDVWGQGTLVTVSS VL: DIALTQPASVSGSPGQSITISCTGTSSDVGTYNQVSWYQQHPGKAPKLMIYGVSKRPSGVSNRFSGSKSGNTASLTISGLQAEDEADYYCSTATAMTVSLVFGGGTKLTVLG	
